Results on 15 molecules are retold here after US20190241886A1 (ADAGENE, published 2019).

Test [1] addresses T1, Human CD137 displayed on yeast cells (human, UniProt Q07011 24-186, limits assumed).
T1 construct: Yeast cells displaying human CD137, stained with serial dilutions of antibody; also called human CD137 on the cell surface
In words: flow cytometry on yeast cells displaying human CD137; ratio to parental TY21242. The protocol:
(§1) The masking efficiency was then measured through flow cytometry. Briefly, yeast cells displaying human CD137 on their surface washed twice with PB SA buffer, and 50 μL (1×10̂6) cells were dispensed into each well of a 96 well plate. Cells were then incubated with 3-fold serial dilutions of antibodies for 1 hour on ice, washed once with PBSA buffer, and then incubated with 100 μL of PE conjugated mouse anti-human Fc (1 μg/ml) for 30 minutes on ice. The cells were then washed once prior to analysis by flow cytometry (Beckman® CytoFlex).
On the technique in general: Flow cytometry measures light scatter and fluorescence of single cells or particles in a stream.

Test [2] addresses T1, Human CD137 displayed on yeast cells. The test can be described thus: flow cytometry on yeast cells displaying human CD137; column headed EC50 / KD (nM). As for the experimental part:
as §1

For test [3], the target named is T2, Recombinant human CTLA4-Fc (human, UniProt P16410 36-161, limits assumed).
T2 construct: Coated on the ELISA plate at 1 ug/mL; also called antigen; not shown: Fc part
T2 sequence (looked up): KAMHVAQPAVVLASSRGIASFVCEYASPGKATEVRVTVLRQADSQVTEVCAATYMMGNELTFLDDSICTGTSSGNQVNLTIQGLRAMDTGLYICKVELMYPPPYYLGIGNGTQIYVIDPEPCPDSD
In words: ELISA EC50 divided by EC50 of parental TY21580, data batch 1. The protocol:
(§2) Recombinant human CTLA4-Fc was diluted to 1μg/mL in PBS and coated on a Maxisorp plate at 4° C. overnight. Plates were blocked with PBS supplemented with 3% non-fat milk at 37° C. for 1 hour. After washing, 100 μL of 3-fold serial dilutions of antibodies were added to each well. After incubation at 37° C. for 1 hour, plates were washed four times, and 100 μL HRP conjugated anti-human IgG (Fab specific) (1:6000 dilution) was added to each well. Plates were incubated at 37° C. for 1 hour, washed four times, and then 50 μL TMB substrate solution was added to each well, and the plate was incubated at room temperature. Absorbance at 450 nm was measured after the reactions were stopped with 50 μL H₂SO₄ per well. The EC₅₀ was evaluated by fitting the ELISA data using the asymmetrical sigmoidal (five-parameter logistic equation) model of GraphPad Prism 6 software.

For test [4], the target named is T2, Recombinant human CTLA4-Fc. In words: ELISA EC50 divided by EC50 of parental TY21580, data batch 2. The protocol:
as §2
Background: An ELISA detects its analyte on a solid surface through an enzyme-linked reagent.

For test [5], the target named is T2, Recombinant human CTLA4-Fc. In words: ELISA EC50 divided by EC50 of parental TY21580, third block of Table 6. As for the experimental part:
as §2

B1: TY21242 (antibody, V domains shown)
VH: EVQLVESGGGLVQPGGSLRLSCAASGFSLSTGGVGVGWIRQAPGKGLEWLALIDWADDKYYSPSLKSRLTISRDNSKNTLYLQLNSLRAEDTAVYYCARGGSDTVIGDWFAYWGQGTLVTVSS
VL: DIQLTQSPSSLSASVGDRVTITCRASQSIGSYLAWYQQKPGKAPKLLIYDASNLETGVPSRFSGSGSGTDFTLTISSLQPEDFATYYCQQGYYLWTFGQGTKVEIK
notes: Anti-human-CD137 antibody; the isotype of the parent is not restated; also called parental antibody TY21242; parental CD137 antibody
As to B1, the Masking efficiency in test [1] came to 1. In test [2], this molecule had an EC50 of 0.28 nM.

B2: TY22591 (antibody, V domains shown)
VH: EVQLVESGGGLVQPGGSLRLSCAASGFSLSTGGVGVGWIRQAPGKGLEWLALIDWADDKYYSPSLKSRLTISRDNSKNTLYLQLNSLRAEDTAVYYCARGGSDTVIGDWFAYWGQGTLVTVSS
VL: EVGSYSSTHAHCHHSPANCISSGRSAGGGGSPLGLAGSGGSDIQLTQSPSSLSASVGDRVTITCRASQSIGSYLAWYQQKPGKAPKLLIYDASNLETGVPSRFSGSGSGTDFTLTISSLQPEDFATYYCQQGYYLWTFGQGTKVEIK
notes: Full IgG4 expressed in mammalian cells, uncleaved
For B2, in test [1], the Masking efficiency was determined as 38.3. In addition, in test [2], the concentration giving a half-maximal response (EC50) was determined as 10.8 nM.

B3: TY22598 (antibody, V domains shown)
VH: EVQLVESGGGLVQPGGSLRLSCAASGFSLSTGGVGVGWIRQAPGKGLEWLALIDWADDKYYSPSLKSRLTISRDNSKNTLYLQLNSLRAEDTAVYYCARGGSDTVIGDWFAYWGQGTLVTVSS
VL: EVGSYSNNFASCLWRHRSCADSGRSAGGGGSPLGLAGSGGSDIQLTQSPSSLSASVGDRVTITCRASQSIGSYLAWYQQKPGKAPKLLIYDASNLETGVPSRFSGSGSGTDFTLTISSLQPEDFATYYCQQGYYLWTFGQGTKVEIK
notes: as for B2
In the case of B3, in test [1], the Masking efficiency is 30.5. Also, in test [2], the concentration giving a half-maximal response (EC50) came out at 8.61 nM.

B4: TY22596 (antibody, V domains shown)
VH: EVQLVESGGGLVQPGGSLRLSCAASGFSLSTGGVGVGWIRQAPGKGLEWLALIDWADDKYYSPSLKSRLTISRDNSKNTLYLQLNSLRAEDTAVYYCARGGSDTVIGDWFAYWGQGTLVTVSS
VL: EVGSYYHDYDDCRVLPRRCFNSGRSAGGGGSPLGLAGSGGSDIQLTQSPSSLSASVGDRVTITCRASQSIGSYLAWYQQKPGKAPKLLIYDASNLETGVPSRFSGSGSGTDFTLTISSLQPEDFATYYCQQGYYLWTFGQGTKVEIK
notes: as for B2
With B4, the Masking efficiency in test [1] worked out at 20.8. For the same molecule, in test [2], the EC50 is 5.86 nM.

B5: TY22595 (antibody, V domains shown)
VH: EVQLVESGGGLVQPGGSLRLSCAASGFSLSTGGVGVGWIRQAPGKGLEWLALIDWADDKYYSPSLKSRLTISRDNSKNTLYLQLNSLRAEDTAVYYCARGGSDTVIGDWFAYWGQGTLVTVSS
VL: EVGSYNDYNYHCKWRPSRCHNSGRSAGGGGSPLGLAGSGGSDIQLTQSPSSLSASVGDRVTITCRASQSIGSYLAWYQQKPGKAPKLLIYDASNLETGVPSRFSGSGSGTDFTLTISSLQPEDFATYYCQQGYYLWTFGQGTKVEIK
notes: as for B2
Consider B5, for which the Masking efficiency in test [1] stood at 379. In test [2], a half-maximal response (EC50) required 107 nM.

B6: TY22594 (antibody, V domains shown)
VH: EVQLVESGGGLVQPGGSLRLSCAASGFSLSTGGVGVGWIRQAPGKGLEWLALIDWADDKYYSPSLKSRLTISRDNSKNTLYLQLNSLRAEDTAVYYCARGGSDTVIGDWFAYWGQGTLVTVSS
VL: EVGSYDTDYDFCPILRHRCDSSGRSAGGGGSPLGLAGSGGSDIQLTQSPSSLSASVGDRVTITCRASQSIGSYLAWYQQKPGKAPKLLIYDASNLETGVPSRFSGSGSGTDFTLTISSLQPEDFATYYCQQGYYLWTFGQGTKVEIK
notes: as for B2
On to B6, for which the Masking efficiency in test [1] was 83.7. The molecule also registered an EC50 in test [2] of 23.6 nM.

B7: TY22586 (antibody, V domains shown)
VH: EVQLVESGGGLVQPGGSLRLSCAASGFSLSTGGVGVGWIRQAPGKGLEWLALIDWADDKYYSPSLKSRLTISRDNSKNTLYLQLNSLRAEDTAVYYCARGGSDTVIGDWFAYWGQGTLVTVSS
VL: EVGSYPTDLDACADAPNHCHFSGRSAGGGGSPLGLAGSGGSDIQLTQSPSSLSASVGDRVTITCRASQSIGSYLAWYQQKPGKAPKLLIYDASNLETGVPSRFSGSGSGTDFTLTISSLQPEDFATYYCQQGYYLWTFGQGTKVEIK
notes: as for B2
As for B7, the Masking efficiency in test [1] worked out at 300 fold.

B8: TY22599 (antibody, V domains shown)
VH: EVQLVESGGGLVQPGGSLRLSCAASGFSLSTGGVGVGWIRQAPGKGLEWLALIDWADDKYYSPSLKSRLTISRDNSKNTLYLQLNSLRAEDTAVYYCARGGSDTVIGDWFAYWGQGTLVTVSS
VL: EVGSYTDNYDYCPRLRRKCYHSGRSAGGGGSPLGLAGSGGSDIQLTQSPSSLSASVGDRVTITCRASQSIGSYLAWYQQKPGKAPKLLIYDASNLETGVPSRFSGSGSGTDFTLTISSLQPEDFATYYCQQGYYLWTFGQGTKVEIK
notes: as for B2
As to B8, the Masking efficiency in test [1] was 348. The molecule further showed a 50% effective concentration (EC50) in test [2] of 98.1 nM.

B9: TY22404 (antibody, IgG1, V domains shown)
VH: EVQLVESGGGLVQPGGSLRLSCAASGYSISSGYHWSWIRQAPGKGLEWLARIDWDDDKYYSTSLKSRLTISRDNSKNTLYLQLNSLRAEDTAVYYCARSYVYFDYWGQGTLVTVSS
VL: EVGSYPNPSSDCVPYYYACAYSGRSAGGGGSPLGLAGSGGSDIQLTQSPSSLSASVGDRVTITCRASQSVRGRFLAWYQQKPGKAPKLLIYDASNRATGIPSRFSGSGSGTDFTLTISSLQPEDFATYYCQQSSSWPPTFGQGTKVEIKR
notes: IgG1 from HEK293F cells, uncleaved; also called peptide name B13197
In the case of B9, the Masking efficiency in test [3] was 826; in test [4], 385.

B10: TY22566 (antibody, V domains shown)
VH: EVQLVESGGGLVQPGGSLRLSCAASGYSISSGYHWSWIRQAPGKGLEWLARIDWDDDKYYSTSLKSRLTISRDNSKNTLYLQLNSLRAEDTAVYYCARSYVYFDYWGQGTLVTVSS
VL: EVGSYPNPASDCVPYYYACAYSGRSAGGGGSPLGLAGSGGSDIQLTQSPSSLSASVGDRVTITCRASQSVRGRFLAWYQQKPGKAPKLLIYDASNRATGIPSRFSGSGSGTDFTLTISSLQPEDFATYYCQQSSSWPPTFGQGTKVEIKR
notes: IgG1, uncleaved; mask derived from B13192 or B13197 to remove a potential glycosylation site
Take B10: in test [5], the Masking efficiency came out at 489.

B11: TY22563 (antibody, V domains shown)
VH: EVQLVESGGGLVQPGGSLRLSCAASGYSISSGYHWSWIRQAPGKGLEWLARIDWDDDKYYSTSLKSRLTISRDNSKNTLYLQLNSLRAEDTAVYYCARSYVYFDYWGQGTLVTVSS
VL: EVGSYYSAYPACDSHYPYCQSSGRSAGGGGSPLGLAGSGGSDIQLTQSPSSLSASVGDRVTITCRASQSVRGRFLAWYQQKPGKAPKLLIYDASNRATGIPSRFSGSGSGTDFTLTISSLQPEDFATYYCQQSSSWPPTFGQGTKVEIKR
notes: as for B10
In the case of B11, the Masking efficiency in test [5] amounted to 144.

B12: TY22564 (antibody, V domains shown)
VH: EVQLVESGGGLVQPGGSLRLSCAASGYSISSGYHWSWIRQAPGKGLEWLARIDWDDDKYYSTSLKSRLTISRDNSKNTLYLQLNSLRAEDTAVYYCARSYVYFDYWGQGTLVTVSS
VL: EVGSYYSAYPACDSHYPYCNSAGRSAGGGGSPLGLAGSGGSDIQLTQSPSSLSASVGDRVTITCRASQSVRGRFLAWYQQKPGKAPKLLIYDASNRATGIPSRFSGSGSGTDFTLTISSLQPEDFATYYCQQSSSWPPTFGQGTKVEIKR
notes: as for B10
For the molecule B12, in test [5], the Masking efficiency came to 117.

B13: TY22402 (antibody, IgG1, V domains shown)
VH: EVQLVESGGGLVQPGGSLRLSCAASGYSISSGYHWSWIRQAPGKGLEWLARIDWDDDKYYSTSLKSRLTISRDNSKNTLYLQLNSLRAEDTAVYYCARSYVYFDYWGQGTLVTVSS
VL: EVGSYIVHHSDCDAFYPYCDSSGRSAGGGGSPLGLAGSGGSDIQLTQSPSSLSASVGDRVTITCRASQSVRGRFLAWYQQKPGKAPKLLIYDASNRATGIPSRFSGSGSGTDFTLTISSLQPEDFATYYCQQSSSWPPTFGQGTKVEIKR
notes: IgG1 from HEK293F cells, uncleaved; also called peptide name B13180
In the case of B13, the Masking efficiency in test [3] was 2210; in test [4], 377.

B14: TY22565 (antibody, V domains shown)
VH: EVQLVESGGGLVQPGGSLRLSCAASGYSISSGYHWSWIRQAPGKGLEWLARIDWDDDKYYSTSLKSRLTISRDNSKNTLYLQLNSLRAEDTAVYYCARSYVYFDYWGQGTLVTVSS
VL: EVGSYPQPSSDCVPYYYACAYSGRSAGGGGSPLGLAGSGGSDIQLTQSPSSLSASVGDRVTITCRASQSVRGRFLAWYQQKPGKAPKLLIYDASNRATGIPSRFSGSGSGTDFTLTISSLQPEDFATYYCQQSSSWPPTFGQGTKVEIKR
notes: as for B10
As to B14, the Masking efficiency in test [5] worked out at 632.

B15: TY22401 (antibody, V domains shown)
VH: EVQLVESGGGLVQPGGSLRLSCAASGYSISSGYHWSWIRQAPGKGLEWLARIDWDDDKYYSTSLKSRLTISRDNSKNTLYLQLNSLRAEDTAVYYCARSYVYFDYWGQGTLVTVSS
VL: EVGSYNFVADSCPDHPYPCSASGRSAGGGGSPLGLAGSGGSDIQLTQSPSSLSASVGDRVTITCRASQSVRGRFLAWYQQKPGKAPKLLIYDASNRATGIPSRFSGSGSGTDFTLTISSLQPEDFATYYCQQSSSWPPTFGQGTKVEIKR
notes: IgG1 from HEK293F cells, uncleaved; also called peptide name B13189
As for B15, the Masking efficiency in test [3] was 110; in test [4], 48.

What is called EC50 is the concentration giving half of the maximal effect. Lower therefore signals higher potency in that assay.
